Target: recombinant HCMV pUL50 (His-tagged) (human cytomegalovirus (HCMV)) (UniProt P16791)
Test: ELISA; competition: pUL53 (1 µg/mL) coated on Immulon plates; peptide in serial dilutions from 10 µM together with His-tagged pUL50 (0.78 µg/mL) for 2.5 h; detection with anti-His-HRP; 0.1 M phosphate buffer pH 7.2, 0.1% BSA, 0.01% Tween 20

## NLS-CPP (acetylated; pUL53 NLS 18-27 joined to HIV-1 Tat 47-59) (peptide)
  IC50: > 10 µM
